Laboratory results published in patent US20040175378A1, “Selected antibody compositions and methods for binding to aminophospholipids” (Board of Regents, The University of Texas System, priority 2002, published 2004).

Legend:
[1] = system: Pichinde virus; format: cell-based
[2] = ELISA binding to anionic phospholipids in 5 mM EDTA (Ca2+ requirement)
Procedure: The specificity of the 9D2 antibody binding was validated by using control rat IgM of irrelevant specificity (Pharmingen, San Diego, Calif.). The specificity of annexin V binding to phospholipids, which is Ca^2+-dependent, was determined by diluting the reagent in the DPBS containing 5 mM EDTA. Additional negative controls consisted of washing the plates with the binding buffer containing 0.2% of a detergent Tween 20. This treatment extracts lipids, thus removing the phospholipid that was absorbed to plastic. Neither 9D2 antibody nor annexin V bound to detergent-washed plates.

[3] = Liposome competition for 3G4 binding to immobilized PS; conditions: 3G4 0.1 μg/ml
Procedure: Liposomes were prepared from solutions of 5 mg of a single phospholipid in chloroform. The solutions were dried under nitrogen to form a thin layer in a round-bottomed glass flask. Ten ml of Tris buffer (0.1 M, pH 7.4) were then added and the flask was sonicated five times for 2 min. […] The mixture was added to PS-coated plates (after standard blocking), incubated for 1 hour, washed and the secondary antibody added. After 1 hour, the plates were washed and developed for 5 minutes using OPD.

[4] = system: L540 human Hodgkin's lymphoma; experiment: 3G4 tumor treatment; format: in vivo, mice; conditions: subcutaneous L540 xenografts
Procedure: (§1) In the subcutaneous model, mice are typically injected with 1×10^7 cells in 0.2 ml. Mice are not anesthetized, but are restrained using a steady grip of mouse skin exposing the right flank. A 1 ml syringe with a 23 gauge needle is used to inject 1×10^7 cells in 200 μl, just under the skin of the mice and a bleb will be seen. It is not unusual to observe a small amount of fluid leak from the injection site. A twisting motion may be used when withdrawing the needle from the subcutaneous injection to reduce this leakage. Tumor volume is measured by L×W×H.
(§2) Treatment was repeated 3 times a week. Animals were monitored twice a week for tumor measurements.

[5] = mouse, in vivo, iv
[6] = Binding to heparin, heparan sulfate and DNA
[7] = monkey, in vivo
[8] = system: mCMV RVG102; experiment: Survival of mCMV-infected mice; format: in vivo, Balb/C mice; conditions: 1 mg/mouse i.p. day 1, 0.5 mg/mouse every four days until day 26; past 90 days
[9] = system: human CMV AD169; experiment: CMV viral load by plaque assay; format: cell-based; conditions: for decrease in viral titer: high m.o.i.
[10] = system: Meth A fibrosarcoma; experiment: 3G4 tumor treatment; format: in vivo, mouse
Procedure: as §1, §2

[11] = Toxicity of 3G4 in mice; format: in vivo, BALB/c mice
Excerpt: The following parameters were specifically examined.
There were no physical signs of toxicity, e.g. hair loss, loss of appetite, etc. […] Marrows in the treated animals were essentially completely cellular (as would be expected for a young mammal). Erythroid, granulocytic, lymphocytic progenitors and megakaryocytes were present in normal numbers.
Mice retain normal physical signs, bone marrow cellularity, white blood cell counts, histology and coagulation functions.

[12] = system: human CMV AD169; experiment: CMV-GFP infected HHF-R2 cells, fluorescent microscopy; conditions: MOI 0.01
[13] = system: tumor cells; experiment: Direct effect of 3G4 on tumor cells in vitro; format: cell-based
[14] = system: orthotopic MDA-MB-231 breast cancer; experiment: 3G4 tumor treatment and histology; format: in vivo, mice
Procedure: FIG. 17A and FIG. 17B. […] At the conclusion of treatment, animals were perfused and tumors were snap-frozen, cut and stained with an antibody to murine CD31 (rat, anti-mouse CD31), a pan-endothelial marker of murine vasculature (FIG. 17A), or embedded in paraffin and strained with H&E (FIG. 17B).
In the orthotopic model, 1×10^7 cells in 0.1 ml DMEM are typically injected into MFP of anesthetized mice. Mice are anesthetized with 0.075 ml of mouse cocktail injected IP. The mouse cocktail is 5 ml Ketamine (100 mg/ml); 2.5 ml Xylazine (20 mg/ml); 1 ml Acepromazine (10 mg/ml); 11 ml sterile water. Dosage is 0.1 ml per 20-30 grams body weight via the IP route for a duration of 30 minutes.
Once the mouse is anesthetized, as measured by no response to toe/foot pinch, the mouse is laid on its left side and wiped with 70% ethanol just behind the head and around the right forearm/back area. […] 0.1 ml of cells are injected into the fat pad using a 1 ml syringe and a 27-gauge needle, producing a bleb in the fat pad. The incision is closed using a 9 mm sterile wound clip. The mouse is returned to its cage and observed until it has wakened from anesthesia and is mobile. Post-operative health status is determined, and if any signs of distress are observed, the animal is given acetaminophen (0.24 mg/ml)+codeine (0.024 mg/ml) in the drinking water. The wound clip is removed after 1 week. This method is used so that the cells are accurately placed into the selected site and not into the subcutaneous region. Tumors will be approximately 200 μl in volume (L×W×W) in 14-15 days and the take rate is essentially 100%.
as §2

[15] = system: H2O2-treated HL-60 tumor cells; experiment: Macrophage phagocytosis of PS-positive tumor cells; conditions: 5 μg/ml, vs isotype-matched control antibody
[16] = system: bEnd.3 cells; experiment: Growth of bEnd.3 cells in vitro; format: cell-based; conditions: 20 μg to 40 μg total IgG per well, 48 and 96 hours
Procedure: 20% DMEM alone (control) or 20% DMEM containing the antibodies (20 μg to 40 μg total IgG per well) was added 4 hours after seeding. Each clone was tested on two separate plates in triplicates. Cells were detached 48 and 96 hours later, the cell count was determined in each well and the average cell number per treatment was calculated.

[17] = system: apoptotic tumor cells; experiment: Dendritic cell uptake of apoptotic tumor cells; format: cell-based; conditions: Fc(γ)R mediated internalization of 3G4-ATC complexes
[18] = m.o.i. 0.01 pfu/cell, 100 μg/ml
[19] = 100 μg IP three times a week for 2 to 3 weeks

B1: 3G4: mouse IgG3 kappa monoclonal antibody binding PS and other anionic phospholipids; hybridoma ATCC PTA 4545 (antibody, V domains shown)
VH: EVQLQQSGPELEKPGASVKLSCKASGYSFTGYNMNWVKQSHGKSLEWIGHIDPYYGDTSYNQKFRGKATLTVDKSSSTAYMQLKSLTSEDSAVYYCVKGGYYGHWYFDVWGAGTTVTVSSATTTAPSVYPLVP
VL: DIQMTQSPSSLSASLGERVSLTCRASQDIGSSLNWLQQGPDGTIKRLIYATSSLDSGVPKRFSGSRSGSDYSLTISSLESEDFVDYYCLQYVSSPPTFGAGTKLELKRADAAPTVFIFGRIP
infected cells [1]: about one in about a hundred cells
binding to anionic phospholipids in the presence of 5 mM EDTA [2]: unaffected by the presence of 5 mM EDTA
binding to PS adsorbed to ELISA plates in the presence of liposomes [3]: blocked by liposomes prepared from PS, PA, PI, PG and CL
growth retardation [4]: 65%
Volume of distribution [5]: 0.1 L/kg
half-life in the α-phase of clearance [5]: 3 h
half-life in the β-phase of clearance [5]: 120 h
binding to heparin, heparan sulfate or double or single stranded DNA [6]: does not bind detectably
side effects [7]: no side effects have been observed
survival [8]: 100%
decrease in viral titer ([9]; addition delayed to 48 hours): 2 log10
decrease in viral titer ([9]; addition up to 24 hours after infection): 5-6 log10
decrease in viral titer as compared to GV39G-treatment ([9]; m.o.i. 0.01 pfu/cell, 50 μg/ml): 3.5 log10
decrease in viral titer as compared to GV39G-treated cells [9, 18]: 6 log10
inhibition of viral replication [9, 18]: approximately 99.9999%
inhibition of viral replication compared to GV39G ([9]; m.o.i. 3, 50 μg/ml): 3 logs
decrease in viral titer as compared to GV39G-treated cells ([9]; m.o.i. 3, 100 μg/ml): 5 log10
mice with long-term complete remissions ([10]; Meth A-bearing mice): 50%
growth retardation ([10]; syngeneic Meth A): 90%
blood cell counts [11, 19]: no changes in blood cell counts
bodyweight [11, 19]: gained weight at the same rate as BBG3 treated mice
toxicity ([11]; 1 mg purified 3G4 intraperitoneally): no toxicity was observed
toxicity ([11]; more than 200 mice, 0.1 mg three times a week for 2-3 weeks): no instance of toxicity has been observed
entry of the virus into the cells ([12]; day 3, 50 and 100 μg/ml): does not appear to significantly inhibit the entry of the virus
spread of CMV from the original infected cell ([12]; day 9, 100 and 50 μg/ml): restricted to the original singly-infected cell
direct inhibitory effect on tumor cells [13]: No direct inhibitory effect on tumor cells was observed
mice with long-term complete remissions ([14]; MBA-MD-231 tumors): 30%
reduction in microvascular density, treated vs. untreated mice ([14]; histological examination): 70%
growth retardation ([14]; orthotopic MDA-MB-231): 50%
increase in phagocytosis of PS-positive cells by macrophages [15]: more than three fold
inhibitory effect on growth of bEnd.3 cells [16]: particularly effective
enhancement of DC uptake of apoptotic tumor cells [17]: 300%
